Experimental data reported in US20180237511A1 (Sanofi, published 2018).
Blank lines part the entries; values can stand above or below the binder they belong to.

Columns and labels:
[1] = molecular target: T1, human beta-dystroglycan extracellular domain (soluble) (human, UniProt Q14118 654-749); assay: SPR (Biacore) kinetics; mAb immobilized, hBeta-DG in flow
T1 construct: extracellular domain; The expression construct of soluble human beta-DG is not described (only the mouse one); One entry is used for all soluble human beta-DG, also for the crystal structure; also called hBeta-DG; hbeta-DG
T1 sequence (looked up): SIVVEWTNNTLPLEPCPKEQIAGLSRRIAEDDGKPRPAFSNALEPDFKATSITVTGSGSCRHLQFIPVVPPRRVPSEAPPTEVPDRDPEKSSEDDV

[2] = molecular target: T2, murine beta-dystroglycan extracellular domain (mbeta-DG ECD), HPC4 tagged (mouse, UniProt Q62165 652-746); assay: SPR (Biacore) kinetics; mAb immobilized, mBeta-DG in flow
T2 construct: range 652-746; Made in E. coli as MBP fusion; MBP cleaved off with TEV protease; also called mbeta-DG-HPC4; murine beta-DG; not shown: C-terminal HPC4 tag
T2 sequence (looked up): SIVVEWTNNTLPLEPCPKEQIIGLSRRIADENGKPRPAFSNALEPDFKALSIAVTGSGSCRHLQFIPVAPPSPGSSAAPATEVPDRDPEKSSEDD

[3] = molecular target: T3, Fabrazyme (agalsidase beta, Genzyme) (UniProt P06280 32-429); assay: dot blot: protein dotted on nitrocellulose (250 to .016 ng), probed with AS19
T3 construct: Negative control protein on the dot blots
T3 sequence (looked up): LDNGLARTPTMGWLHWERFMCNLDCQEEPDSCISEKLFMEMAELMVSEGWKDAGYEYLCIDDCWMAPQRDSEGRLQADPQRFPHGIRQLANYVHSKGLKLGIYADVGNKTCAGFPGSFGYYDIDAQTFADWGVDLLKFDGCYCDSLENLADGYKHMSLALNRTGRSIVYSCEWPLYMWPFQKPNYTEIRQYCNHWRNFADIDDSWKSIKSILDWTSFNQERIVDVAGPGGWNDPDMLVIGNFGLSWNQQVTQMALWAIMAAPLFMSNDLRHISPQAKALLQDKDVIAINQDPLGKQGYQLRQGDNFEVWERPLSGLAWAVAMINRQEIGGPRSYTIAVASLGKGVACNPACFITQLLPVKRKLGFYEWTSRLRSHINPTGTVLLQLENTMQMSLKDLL

[4] = molecular target: T2, murine beta-dystroglycan extracellular …; assay: SPR (Biacore) kinetics, antibody as ligand on the chip, sample mBDg in flow, fit 1:1 Binding
[5] = molecular target: T1, human beta-dystroglycan extracellular …; assay: dual binding sandwich ELISA on coated human beta-DG, read out through LG4/5-mFc (5 ug/mL)
Procedure: A dual binding sandwich ELISA was performed by coating Thermo Nunc Immobilized SA 96 well plates with either 2 ug/mL of biotinylated N′Avi-HPC4-human LG4/5 or biotinylated human-beta DG-HPC4-Avi-C′. After overnight incubation at 4° C., the plates were blocked with PBS+1% BSA+0.1% Tween for 1 hour at room temperature. After washing (BioTek ELx405 Select CW) with PBS, the trivalent or parental antibodies were added to the plate started at 8 ug/mL and a 2-fold dilution was performed across the plate, antibody was incubated for 1 hour at room temperature. After washing, the second antigen of beta-DG-mFc (FIG. 1A) or LG4/5-mFc was added at 5 ug/mL. Following the second antigen, a secondary antibody of donkey anti-mouse (Jackson ImmunoResearch) at a 1:2,000 dilution was added for 30 minutes. ABTS was resuspended in ABTS buffer (Roche) and added to the wells for detection. Resulting signal was read with the Perkin Elmer EnVision Multimode Plate Reader at 405 nm.
To show binding of the triAbs to both antigens, a dual binding sandwich ELISA was performed as described above using 2 ug/mL of biotinylated N′Avi-HPC4-human LG4/5 (FIG. 14A) or biotinylated human-beta DG-HPC4-Avi-C′ (FIG. 14B).

[6] = molecular target: T1, human beta-dystroglycan extracellular …; assay: SPR, antibody on Protein G chip, beta-DG in flow, 1:1 model (table title says laminin-2; paragraph 445 says human beta-DG)
Procedure: Data was evaluated with a 1:1 binding model using the BIAevaluation software.
SPR was used as described above to analyze the kinetics of triAb binding to laminin-2 (Table N) or beta-DG (Table O).

- Kd [1]: 2.06 nM
- Kd [2]: 3.38 nM
- binding result [3]: no binding (tested: 250 ng)
- koff [4]: 0.000667 s⁻¹
- kon [4]: 110000 M⁻¹ s⁻¹
B1: anti-beta-DG antibody derived from hybridoma clone AS19 (antibody, V domains shown)
VH: QVQLQQSGPELVKPGASVKMSCKASGFTFTDSVISWVKQRTGQGLEWIGEIYPGSGSIYYNEKFKGKATLTADKSSNTAYMQLRSLTSEDSAVYFCAMRRSYWGQGTLVTVSA
VL: DVLMTQTPLSLPVSLGDQASISCRSSQSIVHSNGNTYLEWYLQKPGQSPKLLIYKVSNRFSGVPDRFSGSGSGTDFTLKISRVEAEDLGVYYCFQGSHVPLTFGAGTKLELK
notes: Hybridoma monoclonal antibody (detected with anti-mouse IgG)

- EC50 (read off the curve) [5]: ~0.1 µg/mL
- Kd [6]: 2.08 nM
- koff [6]: 0.00326 s⁻¹
- kon [6]: 1.57e+06 M⁻¹ s⁻¹
B2: triAb 3407 (bispecific antibody)
light 1: EIVLTQSPDFLSVTPKEKVTLTCRASQSISNNLHWYQQKSDQSPKLLIKYASQSISGIPSRFSGSGSGTDFTLTINSVEAEDAATYFCQQSKSWPRTFGGGTKLEIKDKTHTEIVLTQSPDFLSVTPKEKVTLTCRASQSISNNLHWYQQKSDQSPKLLIKYASQSISGIPSRFSGSGSGTDFTLTINSVEAEDAATYFCQQSKSWPRTFGGGTKLEIKDKTHTRTVAAPSVFIFPPSDEQLKSGTASVVCLLNNFYPREAKVQWKVDNALQSGNSQESVTEQDSKDSTYSLSSTLTLSKADYEKHKVYACEVTHQGLSSPVTKSFNRGEC
heavy 1: EVQLVESGGGLVKPGGSLRLSCAASGFTFSSYTMSWVRQAPGKGLEWVASISSSGSNTYYPDSVKGRFTISRDNAKNNLYLQMNSLRAEDTALYYCARFDYGSSLDSWGQGTLLTVSSDKTHTEVQLVESGGGLVKPGGSLRLSCAASGFTFSSYTMSWVRQAPGKGLEWVASISSSGSNTYYPDSVKGRFTISRDNAKNNLYLQMNSLRAEDTALYYCARFDYGSSLDSWGQGTLLTVSSDKTHTASTKGPSVFPLAPSSKSTSGGTAALGCLVKDYFPEPVTVSWNSGALTSGVHTFPAVLQSSGLYSLSSVVTVPSSSLGTQTYICNVNHKPSNTKVDKKVEPKSCDKTHTCPPCPAPELLGGPSVFLFPPKPKDTLYITREPEVTCVVVDVSHEDPEVKFNWYVDGVEVHNAKTKPREEQYNNASRVVSVLTVLHQDWLNGKEYKCKVSNKALPAPIEKTISKAKGQPREPQVYTLPPCRDELTKNQVSLWCLVKGFYPSDIAVEWESNGQPENNYKTTPPVLDSDGSFFLYSKLTVDKSRWQQGNVFSCSVMHEALHNHYTQKSLSLSPG
heavy 2: QVQLVQSGAEVVKPGSSVKVSCEASGFTFTDSVITWVRQRPGQGLEWIGEIYPGSGNFYYNEKFQGRVTITADKSTSTAYMELSSLRSEDTAVYFCAMRRSSWGQGTLVTVSSASTKGPSVFPLAPSSKSTSGGTAALGCLVKDYFPEPVTVSWNSGALTSGVHTFPAVLQSSGLYSLSSVVTVPSSSLGTQTYICNVNHKPSNTKVDKKVEPKSCDKTHTCPPCPAPELLGGPSVFLFPPKPKDTLYITREPEVTCVVVDVSHEDPEVKFNWYVDGVEVHNAKTKPREEQYNNASRVVSVLTVLHQDWLNGKEYKCKVSNKALPAPIEKTISKAKGQPREPQVCTLPPSRDELTKNQVSLSCAVKGFYPSDIAVEWESNGQPENNYKTTPPVLDSDGSFFLVSKLTVDKSRWQQGNVFSCSVMHEALHNRFTQKSLSLSPG
light 2: DVVMTQTPLSLSVTPGQPASISCKSSQTIVHSNSKTYLEWYLQKPGQSPQLLIYKVSSRFSGVPDRFSGSGSGTDFTLKISRVEAEDVGVYYCFQGSHVPLTFGQGTKLEIKRTVAAPSVFIFPPSDEQLKSGTASVVCLLNNFYPREAKVQWKVDNALQSGNSQESVTEQDSKDSTYSLSSTLTLSKADYEKHKVYACEVTHQGLSSPVTKSFNRGEC
notes: knob-in-hole, NNAS, YTE and RF variants
